Test results reported in PMC3048740.

Assays:
[1] = biological target: CFP-Stim1 (human) (UniProt Q13586); assay: FRET or BRET
[2] = biological target: YFP-Stim1 (human) (UniProt Q13586); assay: FRET or BRET

Substance	FRET reduction against WT-Orai3 with Stim1 [1] [%]	FRET reduction against WT-Orai3 with Stim1 [2] [%]
YFP-Orai3-L285S (from UniProt Q9BRQ5 1-295) (natural protein)	35	–
CFP-Orai3-L292S (from UniProt Q9BRQ5 1-295) (natural protein)	–	20
